Each block holds one binder with its values, some of them ahead of it.
What was measured:
[1] = molecular target: T1, human IGF-1R(1-902)-His10 (human, UniProt P08069 31-932); assay: SPR competition (Biacore 3000): soluble antibody titrated into 40 nM hIGF-1R-His, mixture injected over immobilized M13-C06
T1 construct: Bought from R&D Systems (305-GR-050); also called hIGF-1R-His10; hIGF-1R-His
Protocol: Regeneration was achieved by three 10 μL injections of 0.1 M glycine, pH 2.0. 100% hIGF-1R-His binding to each antibody was determined by the signal above the baseline under mass transport-limiting conditions 60 seconds into the injection.

sIGF-1R(1-903) = molecular target: T2, sIGF-1R(1-903) (human, UniProt P08069 31-933); assay: ITC series titration, C06 MAb first
T2 construct: also called soluble IGF-1R ectodomain
Protocol: The protein solutions were prepared as described above for the MAb binding experiments. All ITC experiments were performed on an ITC₂₀₀ microcalorimeter (MicroCal, LLC) at 25° C. […] IGF-1R bispecific antibodies. A four minute equilibration period was used between all injections with an initial delay of 60 seconds. Numerical integration of the data was performed using the ITC data analysis software supplied by MicroCal (Origin). ΔHA° (T) values were calculated based on the difference between the average heat liberated/absorbed during the binding phase of the injections and the average heat of dilution found once the receptor, IGF-1R, was saturated with MAb or BsAb.
Both the dimeric receptor and the bivalent MAbs contain two potential binding sites.

human IGF-1R(1-903)-Fc [2] = molecular target: T3, human IGF-1R(1-903)-Fc (human, UniProt P08069 31-933); assay: ELISA, blocking of IGF-2 His (640 nM by the table head) on biotinylated hIGF-1R-Fc
T3 construct: also called hIGF-1R-Fc; SDWT; not shown: human IgG1 Fc, C-terminal tag

[3] = molecular target: T4, hIGF-1R-Fc mutant SD005 (A217T) (human, UniProt P08069 31-933); assay: SPR: receptor-Fc captured on M13-C06 chip, then M13-C06 Fab; relative to wild type
T4 construct: not shown: human IgG1 Fc, C-terminal tag
Protocol: (§1) After, completion of the receptor-Fc loading step, flow rates were elevated to 5 μl/min. […] At the end of each sensorgram, the flow rate was elevated to 30 μl/min and the chip surface was regenerated by 2×10 μL injections of 0.1 M glycine, pH 2.

[4] = molecular target: T5, hIGF-1R-Fc mutant SD018 (E665A) (human, UniProt P08069 31-933); assay: as above
T5 construct: not shown: human IgG1 Fc, C-terminal tag
Protocol: as §1

[5] = molecular target: T6, hIGF-1R-Fc mutant SD016 (D531Q, V532N) (human, UniProt P08069 31-933); assay: as above
T6 construct: not shown: human IgG1 Fc, C-terminal tag
Protocol: as §1

[6] = molecular target: T7, hIGF-1R-Fc mutant SD002 (M156A) (human, UniProt P08069 31-933); assay: as above
T7 construct: not shown: human IgG1 Fc, C-terminal tag
Protocol: as §1

[7] = molecular target: T8, hIGF-1R-Fc mutant SD010 (G271D) (human, UniProt P08069 31-933); assay: as above
T8 construct: not shown: human IgG1 Fc, C-terminal tag
Protocol: as §1

[8] = molecular target: T9, hIGF-1R-Fc mutant SD009 (E264K) (human, UniProt P08069 31-933); assay: as above
T9 construct: not shown: human IgG1 Fc, C-terminal tag
Protocol: as §1

[9] = molecular target: T10, hIGF-1R-Fc mutant SD008 (S257F) (human, UniProt P08069 31-933); assay: as above
T10 construct: not shown: human IgG1 Fc, C-terminal tag
Protocol: as §1

human IGF-1R(1-903)-Fc [10] = molecular target: T3, human IGF-1R(1-903)-Fc; assay: as above
Protocol: as §1

[11] = molecular target: T11, hIGF-1R-Fc mutant SD013 (D405K) (human, UniProt P08069 31-933); assay: as above
T11 construct: not shown: human IgG1 Fc, C-terminal tag
Protocol: as §1

[12] = molecular target: T12, hIGF-1R-Fc mutant SD003 (T188F) (human, UniProt P08069 31-933); assay: as above
T12 construct: not shown: human IgG1 Fc, C-terminal tag
Protocol: as §1

[13] = molecular target: T13, hIGF-1R-Fc mutant SD011 (G285S, S286T) (human, UniProt P08069 31-933); assay: as above
T13 construct: not shown: human IgG1 Fc, C-terminal tag
Protocol: as §1

[14] = molecular target: T14, hIGF-1R-Fc mutant SD004 (S210H, A211Q) (human, UniProt P08069 31-933); assay: as above
T14 construct: not shown: human IgG1 Fc, C-terminal tag
Protocol: as §1

[15] = molecular target: T15, hIGF-1R-Fc mutant SD012 (E303G) (human, UniProt P08069 31-933); assay: as above
T15 construct: not shown: human IgG1 Fc, C-terminal tag
Protocol: as §1

[16] = molecular target: T16, hIGF-1R-Fc mutant SD019 (E739W, L741F) (human, UniProt P08069 31-933); assay: as above
T16 construct: not shown: human IgG1 Fc, C-terminal tag
Protocol: as §1

[17] = molecular target: T17, hIGF-1R-Fc mutant SD001 (Y28A) (human, UniProt P08069 31-933); assay: as above
T17 construct: not shown: human IgG1 Fc, C-terminal tag
Protocol: as §1

[18] = molecular target: T18, hIGF-1R-Fc mutant SD006 (A227K) (human, UniProt P08069 31-933); assay: as above
T18 construct: not shown: human IgG1 Fc, C-terminal tag
Protocol: as §1

T3 sequence (P08069 31-933): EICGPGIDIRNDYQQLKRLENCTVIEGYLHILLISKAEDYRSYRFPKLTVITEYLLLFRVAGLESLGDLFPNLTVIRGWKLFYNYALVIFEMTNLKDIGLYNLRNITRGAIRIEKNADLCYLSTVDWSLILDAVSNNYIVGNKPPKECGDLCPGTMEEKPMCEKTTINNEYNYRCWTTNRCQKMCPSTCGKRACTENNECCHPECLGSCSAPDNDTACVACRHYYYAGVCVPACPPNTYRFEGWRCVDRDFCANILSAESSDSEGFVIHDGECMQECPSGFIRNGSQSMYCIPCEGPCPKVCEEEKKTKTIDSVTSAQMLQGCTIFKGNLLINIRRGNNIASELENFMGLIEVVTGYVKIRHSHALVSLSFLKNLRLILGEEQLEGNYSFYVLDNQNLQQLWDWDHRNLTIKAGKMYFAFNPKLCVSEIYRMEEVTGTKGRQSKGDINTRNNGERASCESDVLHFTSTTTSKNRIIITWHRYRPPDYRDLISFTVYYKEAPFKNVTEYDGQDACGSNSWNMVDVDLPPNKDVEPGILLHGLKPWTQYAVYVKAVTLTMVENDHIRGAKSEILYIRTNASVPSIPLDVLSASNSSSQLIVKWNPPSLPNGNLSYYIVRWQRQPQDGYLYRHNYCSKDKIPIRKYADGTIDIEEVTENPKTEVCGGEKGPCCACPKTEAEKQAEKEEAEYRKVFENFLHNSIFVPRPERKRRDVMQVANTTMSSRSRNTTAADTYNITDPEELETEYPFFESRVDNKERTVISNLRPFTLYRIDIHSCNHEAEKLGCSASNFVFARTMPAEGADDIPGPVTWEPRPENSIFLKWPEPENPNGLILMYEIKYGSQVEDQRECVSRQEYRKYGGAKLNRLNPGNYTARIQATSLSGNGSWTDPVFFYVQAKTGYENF
T6 sequence (P08069 31-933 D561Q/V562N): as the sequence (P08069 31-933) above, with D531Q, V532N counted along it
T5 sequence (P08069 31-933 E695A): as the sequence (P08069 31-933) above, with E665A counted along it
T17 sequence (P08069 31-933 Y58A): as the sequence (P08069 31-933) above, with Y28A counted along it
T8 sequence (P08069 31-933 G301D): as the sequence (P08069 31-933) above, with G271D counted along it
T10 sequence (P08069 31-933 S287F): as the sequence (P08069 31-933) above, with S257F counted along it
T9 sequence (P08069 31-933 E294K): as the sequence (P08069 31-933) above, with E264K counted along it
T16 sequence (P08069 31-933 E769W/L771F): as the sequence (P08069 31-933) above, with E739W, L741F counted along it
T18 sequence (P08069 31-933 A257K): as the sequence (P08069 31-933) above, with A227K counted along it
T2 sequence (P08069 31-933): as the sequence (P08069 31-933) above
T15 sequence (P08069 31-933 E333G): as the sequence (P08069 31-933) above, with E303G counted along it
T7 sequence (P08069 31-933 M186A): as the sequence (P08069 31-933) above, with M156A counted along it
T4 sequence (P08069 31-933 A247T): as the sequence (P08069 31-933) above, with A217T counted along it
T1 sequence (P08069 other isoform, or with tags, fused parts or gaps): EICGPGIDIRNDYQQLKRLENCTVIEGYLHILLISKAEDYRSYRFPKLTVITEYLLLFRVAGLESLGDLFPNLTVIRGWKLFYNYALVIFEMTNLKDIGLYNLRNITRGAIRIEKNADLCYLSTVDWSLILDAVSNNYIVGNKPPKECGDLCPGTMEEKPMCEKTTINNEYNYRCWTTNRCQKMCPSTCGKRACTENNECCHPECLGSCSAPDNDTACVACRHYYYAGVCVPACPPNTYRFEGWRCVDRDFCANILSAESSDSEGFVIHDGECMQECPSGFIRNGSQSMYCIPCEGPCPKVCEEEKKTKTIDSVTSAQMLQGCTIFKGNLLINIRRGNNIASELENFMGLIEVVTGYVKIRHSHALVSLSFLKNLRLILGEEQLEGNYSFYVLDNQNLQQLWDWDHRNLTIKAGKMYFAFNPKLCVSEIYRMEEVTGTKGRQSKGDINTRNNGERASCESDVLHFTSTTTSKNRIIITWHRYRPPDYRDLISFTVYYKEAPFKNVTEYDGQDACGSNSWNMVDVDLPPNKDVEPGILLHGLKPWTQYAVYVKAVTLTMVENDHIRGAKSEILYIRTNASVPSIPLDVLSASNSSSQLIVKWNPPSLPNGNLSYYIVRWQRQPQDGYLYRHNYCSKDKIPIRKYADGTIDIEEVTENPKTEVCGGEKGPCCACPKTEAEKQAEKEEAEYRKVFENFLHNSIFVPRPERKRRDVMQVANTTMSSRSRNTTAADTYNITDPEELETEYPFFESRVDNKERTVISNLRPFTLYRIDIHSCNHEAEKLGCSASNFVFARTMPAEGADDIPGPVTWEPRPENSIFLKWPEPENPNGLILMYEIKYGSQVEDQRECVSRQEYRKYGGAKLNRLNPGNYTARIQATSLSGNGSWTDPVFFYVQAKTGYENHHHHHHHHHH
T13 sequence (P08069 31-933 G315S/S316T): as the sequence (P08069 31-933) above, with G285S, S286T counted along it
T14 sequence (P08069 31-933 S240H/A241Q): as the sequence (P08069 31-933) above, with S210H, A211Q counted along it
T12 sequence (P08069 31-933 T218F): as the sequence (P08069 31-933) above, with T188F counted along it
T11 sequence (P08069 31-933 D435K): as the sequence (P08069 31-933) above, with D405K counted along it

IC50 (read off the curve) [1]: ~30 nM
ΔH° (sIGF-1R(1-903)): -21.9 kcal/mol
IC50 (human IGF-1R(1-903)-Fc [2]): 1.9 nM
B1: M13-C06 antibody (antibody, V domains shown)
VH: EVQLLESGGGLVQPGGSLRLSCAASGFTFSIYRMQWVRQAPGKGLEWVSGISPSGGTTWYADSVKGRFTISRDNSKNTLYLQMNSLRAEDTAVYYCARWSGGSGYAFDIWGQGTMVTVSS
VL: DIQMTQSPLSLSASVGDRVTITCQASRDIRNYLNWYQQKPGKAPKLLIYDASSLQTGVPSRFGGSGSGTDFSFTIGSLQPEDIATYYCQQFDSLPHTFGQGTKLEIK
notes: Fully human full-length antibody (ATCC PTA-7444); also called M13.C06.G4.P.agly; M13-C06.G4P.agly

Biacore Relative RUmax [3]: 0.9
Biacore Relative RUmax [4]: 1.7
Biacore Relative RUmax [5]: 2
Biacore Relative RUmax [6]: 1.2
Biacore Relative RUmax [7]: 0.8
Biacore Relative RUmax [8]: 0.6
Biacore Relative RUmax [9]: 1.5
Biacore Relative RUmax (human IGF-1R(1-903)-Fc [10]): 1
Biacore Relative RUmax [11]: 0.7
Biacore Relative RUmax [12]: 1
Biacore Relative RUmax [13]: 1.8
Biacore Relative RUmax [14]: 0.8
Biacore Relative RUmax [15]: 0.3
Biacore Relative RUmax [16]: 1.9
Biacore Relative RUmax [17]: 0.6
Biacore Relative RUmax [18]: 1.7
B2: M13-C06 Fab (Fab, V domains shown)
VH: B1 VH
VL: B1 VL
notes: Fab made by enzymatic digestion of the IgG

Source: patent publication US20090130105A1 (Biogen, published 2009)
